The target in data set [1] is T1, PP2A A-C dimer (Homo sapiens, UniProt P67775).
T1 construct: GST (N); His8 (N); made in house; C subunit: baculovirus / insect cells; dimer assembled in vitro
Put plainly: pNPPase activity assay. It counts as biochemical. To be noted: for stimulation of pNPPase activity of PP2A by PTPA or PTPA mutant: FIG. 6B/6C. On the procedure: (§1) The phosphatase activity using pNPP as substrate was performed on a 96-well plate. Briefly, 50 μl of 50 mM pNPP dissolved in 50 mM Tris-HCl (pH 8.2) buffer containing 1 mM DTT, 10 mM MgCl2 and 0.1 mg/ml BSA was added to each well. The reaction was initiated by addition of 10 μl of PP2A samples in the presence or absence of ATP and PTPA. The plate was incubated at 37° C. for 5-20 minutes and the enzymatic reaction product was measured by the absorbance at 405 nm using a plate reader.

In data set [2] the target is T1, PP2A A-C dimer. The data set is described as follows: Phosphorylase a phosphatase assay (pSer activity). Format: biochemical. The method, then: (§2) To measure the phosphatase activity of PP2A, 5 μl of each PP2A sample was added to 45 μl of 0.5 mg/ml of radio-labeled ^32P-phosphorylase b dissolved in 50 mM MOPS buffer containing 1 mM DTT and 5 mM caffeine. Reactions were performed at 37° C. for 10 minutes, and stopped by addition of 10% TCA and 0.5 mg/ml BSA. Samples were kept on ice for 10 minutes to allow complete precipitation of proteins, and were centrifuged for 10 minutes at 14K rpm. Supernatants containing the released ^32P were added to 3 ml Ecosint and the intensity was measured by scintillation counter.

For data set [3], the system named is PTPA-PP2A A-C dimer complex. The data set is described as follows: ATPase activity assay (Malachite Green). Format: biochemical, human. To be noted: for ATPase activity: with equi-molar amount of PP2A A-C dimer. On the procedure: (§3) Protein samples were prepared in 100 mM NaCl, 20 mM HEPES, pH 7.5, and 2 mM dithiothreitol. The release of free phosphate group was measured by the calorimetric Malachite Green Reagent (BioAssay Systems, Hayward, Calif.) using NaH2PO4 as phosphate standard. The protein concentration was determined by a combination of OD absorption at 280 nm and Bio-Rad Protein Assay (Bio-Rad).

For data set [4], the target named is T1, PP2A A-C dimer. The data set is described as follows: Phosphotyrosine phosphatase assay using a fluorogenic peptide as the substrate. Format: biochemical. To be noted: equi-molar PTPA and PP2A, with ATP/Mg2+, FIG. 6G. The method, then: A protein tyrosine phosphatase assay kit (EMD Biosciences) was used to measure phosphotyrosine phosphatase activity. 50 nM PP2A and PTPA, or PTPA mutants were added to a fluorogenic phosphopeptide substrate (MCA-Gly-Asp-Ala-Glu-pTyr-Ala-Ala-Lys(DNP)-Arg-NH2, 1 μM) and incubated at room temperature under very low light conditions. After 10 minutes of incubation, sodium vanadate solution was added to stop the reaction. […] The fluorescent intensity was monitored at 328 nm (excitation) and 395 nm (emission), using a Hitachi F2500 fluorescence spectrophotometer.

Data set [5] addresses T1, PP2A A-C dimer. Put plainly: GST-mediated pull-down assay. Format: binding. To be noted: FIG. 4A; mutants compared with WT PTPA. The method, then: Approximately 30 μg of stoichiometric PP2A A-C dimer were bound to 30 μl of glutathione resin via GST-A protein. The resin was washed with 200 μl assay buffer 3 times to remove excess unbound PP2A. Then 10 μg of WT or mutant PTPA were allowed to bind the resin in a 125-μl volume. After washing 4 times with an assay buffer containing 25 mM Tris, pH 8.0, 150 mM NaCl, and 2 mM dithiothreitol (DTT), the remaining protein and resin were mixed with 15-μl SDS sample buffer and applied to SDS-PAGE. The results were visualized by SDS-polyacrylamide gel electrophoresis (SDS-PAGE) with coomassie staining.

For data set [6], the target named is T1, PP2A A-C dimer. The data set is described as follows: Native polyacrylamide gel electrophoresis (native PAGE) binding. To be noted: quantification of native-PAGE, FIG. 4C; read-out: dissociation constant between PP2A A-C dimer and PTPA. The method, then:
All assays were performed at 4° C. to offset heat generated by electrophoresis. 6% poly-acrylamide (37.5:1 acrylamide:bis-acrylamide) gels were used under the buffer condition of 65 mM Tris, pH 8.5, and 65 mM boric acid. All protein samples were prepared in a 40 μl volume containing 25 mM Tris, pH 8.0, 150 mM NaCl, 2 mM DTT, and 5% glycerol. After pre-running the gels for 15 minutes, half of each sample (20 μl) was loaded into each lane and was subjected to electrophoresis with constant electric field of 15 volts/cm. The gels were stained using coomassie blue, destained, and dried for photography. The gels were scanned by a densitometer, which allowed the estimate of the binding affinity between WT PTPA and PP2A A-C dimer.

Data set [7] concerns the target T1, PP2A A-C dimer. Put plainly: Substrate preference of PP2A (phosphorylase b versus pNPP). Format: biochemical. The following applies: for shift of substrate preference of PP2A from phosphorylase b to pNPP: PTPA mutants, FIG. 6F. On the procedure: as §1, §2
Data set [8] has as its target T2, PTPA-PP2A A-C dimer complex (Homo sapiens, UniProt Q15257).
T2 construct: His6 (C); GST (N); His8 (N); made in house; host or cells: PTPA: E. coli BL21(DE3), pET21b; PP2A C: baculovirus / insect cells
T2 sequence (Q15257 1-323 isoform Q15257-2): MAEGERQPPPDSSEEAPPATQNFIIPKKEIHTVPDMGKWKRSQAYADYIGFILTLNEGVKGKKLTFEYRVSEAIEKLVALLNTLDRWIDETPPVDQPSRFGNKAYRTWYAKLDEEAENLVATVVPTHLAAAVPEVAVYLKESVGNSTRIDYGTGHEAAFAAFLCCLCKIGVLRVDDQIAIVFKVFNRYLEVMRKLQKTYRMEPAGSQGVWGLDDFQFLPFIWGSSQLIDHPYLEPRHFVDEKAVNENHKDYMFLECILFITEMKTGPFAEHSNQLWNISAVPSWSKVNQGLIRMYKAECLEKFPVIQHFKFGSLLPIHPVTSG
Put plainly: ATPase activity assay (Malachite Green). It counts as biochemical. The following applies: PTPA alone, without PP2A; 1 mM ATP and 5 mM Mg2+. On the procedure: as §3

Residue numbers refer to the chain shown, from its start. Names and notes keep the numbering of the source.

T1 sequence (P30153 whole entry partner): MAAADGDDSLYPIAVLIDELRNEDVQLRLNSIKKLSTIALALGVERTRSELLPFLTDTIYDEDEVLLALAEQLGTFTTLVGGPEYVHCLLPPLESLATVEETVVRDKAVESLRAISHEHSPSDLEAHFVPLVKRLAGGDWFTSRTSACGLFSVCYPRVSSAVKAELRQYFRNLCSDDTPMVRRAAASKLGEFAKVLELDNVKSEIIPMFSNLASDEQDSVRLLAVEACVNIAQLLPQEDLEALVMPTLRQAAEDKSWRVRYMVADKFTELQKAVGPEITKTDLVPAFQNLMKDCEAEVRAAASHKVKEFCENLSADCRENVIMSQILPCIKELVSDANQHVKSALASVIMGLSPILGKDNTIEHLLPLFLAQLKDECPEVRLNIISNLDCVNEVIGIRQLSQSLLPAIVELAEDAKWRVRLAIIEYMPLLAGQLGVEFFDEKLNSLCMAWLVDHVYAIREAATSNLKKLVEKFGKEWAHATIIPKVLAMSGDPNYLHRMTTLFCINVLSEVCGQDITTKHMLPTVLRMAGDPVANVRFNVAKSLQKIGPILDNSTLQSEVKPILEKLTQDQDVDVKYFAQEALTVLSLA
T1 sequence (P67775 whole entry): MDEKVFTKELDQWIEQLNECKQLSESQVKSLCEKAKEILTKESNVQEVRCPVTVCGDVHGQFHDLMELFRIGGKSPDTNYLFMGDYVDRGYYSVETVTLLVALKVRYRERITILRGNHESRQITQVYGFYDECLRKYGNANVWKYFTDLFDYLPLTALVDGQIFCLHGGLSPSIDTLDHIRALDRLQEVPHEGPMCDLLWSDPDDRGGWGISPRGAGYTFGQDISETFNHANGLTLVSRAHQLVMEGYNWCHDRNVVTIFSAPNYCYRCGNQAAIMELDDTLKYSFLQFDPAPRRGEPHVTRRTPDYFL

For `Nc1ncnc2c1ncn2[C@@H]1O[C@H](COP(=O)(O)OP(=O)(O)OP(O)(O)=S)[C@@H](O)[C@H]1O` [ATPγS, reference compound], the “stimulation of pNPPase activity of PP2A by ATP analog” value on PP2A A-C dimer [1] (provided to PP2A alone or in the presence of PTPA, FIG. 6B) is recorded as “fails to stimulate”.

As for ATP [ATP/Mg^2+, reference compound], the “effect of ATP/Mg2+ on PP2A pSer activity” value at PP2A A-C dimer [2] (with PTPA or mutants, FIG. 6D) is “did not effect”.

Regarding `C=C1[C@@H](O)[C@@H]2O[C@]3(CC[C@H](/C=C/[C@@H](C)[C@@H]4CC(C)=C[C@@]5(O[C@H](C[C@@](C)(O)C(=O)O)CC[C@H]5O)O4)O3)CC[C@H]2O[C@@H]1[C@@H](O)C[C@H](C)[C@H]1O[C@@]2(CCCCO2)CC[C@H]1C` [okadaic acid, reference compound], in data set [3] (FIG. 5A), the “inhibition of PTPA/PP2A ATPase activity” value was “inhibited”.

B1: phosphotyrosyl phosphatase activator (protein, UniProt Q15257 2-358, looked up)
Serine/threonine-protein …: AEGERQPPPDSSEEAPPATQNFIIPKKEIHTVPDMGKWKRSQAYADYIGFILTLNEGVKGKKLTFEYRVSEMWNEVHEEKEQAAKQSVSCDECIPLPRAGHCAPSEAIEKLVALLNTLDRWIDETPPVDQPSRFGNKAYRTWYAKLDEEAENLVATVVPTHLAAAVPEVAVYLKESVGNSTRIDYGTGHEAAFAAFLCCLCKIGVLRVDDQIAIVFKVFNRYLEVMRKLQKTYRMEPAGSQGVWGLDDFQFLPFIWGSSQLIDHPYLEPRHFVDEKAVNENHKDYMFLECILFITEMKTGPFAEHSNQLWNISAVPSWSKVNQGLIRMYKAECLEKFPVIQHFKFGSLLPIHPVTSG
modifications: His6 tag
Broadly, the Km is the substrate concentration at which the rate is half of its maximum. Turning to B1, the “pNPPase activity of PTPA-stimulated PP2A relative to PP2A in the absence of PTPA” value with PP2A A-C dimer [1] (equi-molar concentrations, with ATP/Mg2+) is “approximately 6 fold”. Also, the “stimulation of pNPPase activity of PP2A by PTPA or PTPA mutant” value with PP2A A-C dimer [1] (with ATP/Mg2+) is on record as “greatly enhanced”. In the data set with PP2A A-C dimer [4], the “stimulation of pTyr phosphatase activity of PP2A (peptide substrate)” value (“stimulation … (peptide substrate)” for short) is on record as “enhanced phosphotyrosine phosphatase activity”. The “interaction with PP2A A-C dimer in GST-mediated pull-down” value (“interaction with PP2A A-C dimer” below) with PP2A A-C dimer [5] was “formed a stable complex”. Further, in the data set with PP2A A-C dimer [2] (about 20-to-1 molar ratio of PTPA to PP2A (maximal reduction), FIG. 6E), the “PP2A pSer/pThr activity relative to PP2A alone” value is listed as “approximately 25%”. Besides, in the data set with PP2A A-C dimer [2] (equi-molar amount of WT PTPA, FIG. 6D), the “reduction of PP2A pSer activity” value was “approximately 45%”. Besides, in the data set with PP2A A-C dimer [2] (titrated against a fixed amount of PP2A A-C dimer, FIG. 6E), the “effect on pSer activity of PP2A in titration” value was “inhibited the pSer activity of PP2A in a concentration-dependent manor”. In addition, the Kd with PP2A A-C dimer [6] was approximately 1000 nM. In the data set with PP2A A-C dimer [7] (stoichiometric ratio of 1:1, FIG. 6F), the “shift of substrate preference of PP2A A-C dimer from phosphorylase b to pNPP” value was “about 10 fold”. In addition, the ATPase activity result in data set [8] is recorded as “did not exhibit any detectable ATPase activity”; in data set [3] (1 mM ATP and 5 mM Mg2+) it was “significant ATPase activity”. Further, in data set [3] (PTPA with equi-molar PP2A A-C dimer, 1 mM ATP and 5 mM Mg2+), the “catalytic turnover rate of ATPase activity” value is reported as “approximately 2 per minute”. Further, the Km in data set [3] (equi-molar amount of PP2A and PTPA, FIG. 5B) was approximately 400 µM.

B2: G205D: missense mutant of human PTPA (protein, UniProt Q15257 2-358, looked up, variant G205D)
Serine/threonine-protein …: B1 Serine/threonine-protein … with G204D
For B2, the “stimulation of pNPPase activity of PP2A by PTPA or PTPA mutant” value with PP2A A-C dimer [1] (with ATP/Mg2+) is listed as “do not stimulate”. The “stimulation … (peptide substrate)” value with PP2A A-C dimer [4] was “did not stimulate”. In the data set with PP2A A-C dimer [5], the “interaction with PP2A A-C dimer” value is “did not have a significant effect”. The “shift of substrate preference of PP2A from phosphorylase b to pNPP” value with PP2A A-C dimer [7] is given as “not observed”. Further, in data set [3] (1 mM ATP and 5 mM Mg2+), the ATPase activity result is given as “significantly lower or undetectable ATPase activity”.

B3: V209D: missense mutant of human PTPA (protein, UniProt Q15257 2-358, looked up, variant V209D)
Serine/threonine-protein …: B1 Serine/threonine-protein … with V208D
On to B3, for which, in the data set with PP2A A-C dimer [4], the “stimulation … (peptide substrate)” value is listed as “did not stimulate”. Moreover, the “interaction with PP2A A-C dimer” value in the data set with PP2A A-C dimer [5] is on record as “significantly compromised binding”. The “shift of substrate preference of PP2A from phosphorylase b to pNPP” value with PP2A A-C dimer [7] is reported as “not observed”. Moreover, the ATPase activity entry in data set [3] (1 mM ATP and 5 mM Mg2+) was “significantly lower or undetectable ATPase activity”.

(Values after patent US20080153773A1, “MODULATORS OF PHOSPHOTYROSYL PHOSPHATASE ACTIVATOR” (priority 2006, published 2008).)
